Reference: the nanobody polyreactivity screen of Harvey et al. (2022)

Assay: yeast display, Sf9 membrane polyspecificity reagent, FACS + sequencing; frameworks hold sequencing errors
Outline: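 After 36–48 hours of galactose induction, yeast (Saccharomyces cerevisiae BJ5465) displaying a synthetic nanobody library were stained at 4 °C for 1 hour with 10% biotinylated, detergent-solubilized Sf9 membrane reagent. Streptavidin microbeads enriched the stained cells before FACS sorting into low and high (top ~1%) gates on anti-HA and streptavidin fluorescence. Each clone's polyreactivity label reflects its gate of origin.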

Row | Sequence | polyreactivity (PSR sort gate)
1 | QVQLVESGGGLVQAGGSLRLSCAASGNTFVTYTMGWYRQAPGKERELVADISSGGSTYYADSVKGRFTISRDNAKNTVYLQINSLKPEDTAVYYCAVQQAVFRSYYIYHRYYWGQGTQVTVSS | high polyreactivity
2 | QVQLVESGGGLVQAGGSLRLSCAASGNTFWDNAMGWYRQAPGKERELVAAIRWSTGSTHYADSVKGRFTISRDNAKNTVYLQMNSLKPEDTAVYYCAATDYYYYRDKYYGYDYWGQGTQVTVSS | low polyreactivity
3 | QVQLVESGGGLVQAGGSLRLSCAASGNTFYGYALGWYRPAPGKERELVASITLSGDSTHYADSVKGRFTISRDNAKNTVYVQMNSLKPEDTAVYYCAGVYTYPLGYYHYTYDYWGQGTQVTVSS | low polyreactivity
4 | QVQLVESGGGLVQAGGSLRLSCAASGNTFYGYAMGWYRQAPGNERELVASITLSGDSTYYADSVKGRFTISRDNAKNTVYLQMNSLKPEDTAVYYCAGVYTYPLGYYHDTYDYWGQGTQVTVSS | low polyreactivity
5 | QVQLVESGGGLVQAGGSLRLSCAASGNTFYRYAMGGYRQSPGKERELVAAITWSGSRTYYADSVKGRFTISRDNAKYTVYLQMNRLKPEDTAVYYCAAPFWYVGPAMDYWGQGTQVTVSS | low polyreactivity
6 | QVQLVESGGGLVQAGGSLRLSCAASGNTFYWYVMGWYRQAPGKERELVARITSSGGSTNYADSVKGRFTISRDNAKNTVYLQMNSLKPEDTAVYYCAADDIYLYGGGTDYYFWGQGTQVTVSS | low polyreactivity
7 | QVQLVESGGGLVQAGGSLRLSCAASGNTIGSNAMGWYRQAPGKERELVATISKRGGSTYYADSVKGRFTISRDNAKNTVYLQMNSLKPEDTAVYYCATTSTRYWAFSSRPDYRDDYWGQGTQVTVSS | high polyreactivity
8 | QVQLVESGGGLVQAGGSLRLSCAASGNTIYQYAMGWYRQAPGKERELVAAISSSVDRTYYADSVKGRFTISRDNAKNTVYLQMNSLKPEDTAVYYCAAASGGRWRVGYWGQGTQVTVSS | high polyreactivity
9 | QVQLVESGGGLVQAGGSLRLSCAASGNTLGYNAMGWYRKAPGKERELVATIRGSGGITYYADSVKGRFTISRDNAKNTVYLQMNSLKPEDTAVDYCAKVYKYRVKGDHWGQGTQVTVSS | low polyreactivity
10 | QVQLVESGGGLVQAGGSLRLSCAASGNTLRYNVMGWYRQAPGKERELDAAISGGGSTSYADSVKGRFTISRDNAKNTVYLQMNSLKPEDTAVYYCAKRSFVGGRGRDSDYWGQGSQVTVSS | low polyreactivity
11 | QVQLVESGGGLVQAGGSLRLSCAASGNTLTYNVMGWYRQAPGKERELVAAISGRGGRTYYADSVKGRFTISRDNAKNTVYLQMNCLKPEDTAVYYCAAKSRNGESGGFDYWGQATQVTVSS | high polyreactivity
12 | QVQLVESGGGLVQAGGSLRLSCAASGNTLVKNAMGWYRQAPGNERELVAAISSSGGRTYYADSVKGRFTISRDNAKNTVYLQMNSLKPEDTAVYYCAARYPSGYYYWGQGTQVTVSS | high polyreactivity
13 | QVQLVESGGGLVQAGGSLRLSCAASGNTTPVNAMGWYRQAPGKERQLVAAITQSGGSTYYADSVKGRFTISRDNAKNTVYLQMNSLKPEDTAVYYCAADYGHYYGLYYWGQGTQVTVSS | low polyreactivity
14 | QVQLVESGGGLVQAGGSLRLSCAASGNTYYGNTKGWYRQAPGKERELVAAITSGGSTYYADSVKGRFTISRDNAKNTVYLQMNSLKPEDTAVYYCNVVFYEYSSVSYDYWGQGTQVTVSS | high polyreactivity
15 | QVQLVESGGGLVQAGGSLRLSCAASGPIFKRNAMGWYRQAPGKERELVAAISGSGGRTYYADSVKGRFTISRDNAKNTVYLQMNSLKPEDTAVYYCNAGGSYYARGMDYWGQGTQVTVSS | high polyreactivity
16 | QVQLVESGGGLVQAGGSLRLSCAASGPIFWGYAMGWYRQAPGKERELVAAITSGGNTNYADSVKGRFTISRDNAKNTVYLQMISLKPEDTAVSYCAKRTRPWRDFDYWGQGTQVTVSS | low polyreactivity
17 | QVQLVESGGGLVQAGGSLRLSCAASGPIFYRYAMGWYRQAPGKERELVAAISRGGRTYYADSVKGRFTISRDNAKNTVYLQMNRLKPEDTAVYYCATTYSLGSWGYDYWGQGTQVTVSS | high polyreactivity
18 | QVQLVESGGGLVQAGGSLRLSCAASGPIVAYNAMGWYRQAPGKERELVAAISYSGGSTYYADSVKGRFTISRDNAKNTVYLQMNSLKPEDTAVYYCNAVYRYRTYRYDYWGQGTQVTVSS | high polyreactivity
19 | QVQLVESGGGLVQAGGSLRLSCAASGPTFDYYAMGWYRQAPGKERELVAAISYSGGNSYYADSVKGRFTISRDNAKNTVYLQMNSLKPEDTAVYYWAANPAARDGRKTGYFCGQGTQVTVSS | high polyreactivity
20 | QVQLVESGGGLVQAGGSLRLSCAASGPTFGVNAMGWYRQAPGKERELVAVISSTGSTNYSDSVKGRFTISRDNAKYTVYLQMNSLKPEDTAVYYCAVGPNSVGNRSYGFDYWGQGTQVTVSS | low polyreactivity
21 | QVQLVESGGGLVQAGGSLRLSCAASGPTFQIYAMGSYRQAPGNERELDAAIRWRGGTTYYADSVKGRFTISRDNAKNTVYLQMNSLTPEDTAVYYCAADYYWSPYYVYQFDYWGQGTQVTVSS | low polyreactivity
22 | QVQLVESGGGLVQAGGSLRLSCAASGPTFWVYAMGWNRQAPGKERELVAAISRSGVSTYYADSVKGRFTISRDNAKNTVYLQMNSLKPEDTAVYYCAAPLIYTPLKYHYWGQGTQVTVSS | low polyreactivity

Row | Sequence | polyreactivity (PSR sort gate)
23 | QVQLVESGGGLVQAGGSLRLSCAASGPTNAMGWYRQAPGKERELVAAITKSGGSTYYADSVKGRFTISRDNAKNTVYLLMNSLKPEDTAVYYCALILRHTAYYYWGQGTQVTVSS | high polyreactivity
24 | QVQLVESGGGLVQAGGSLRLSCAASGQIFSRYAMGWSRQAPGNERELVAAITWSGGRTYYADSVKGRFTISRDNAKYTVYLQMNSLKAEDTAVYYCAATRYPLPEYYWGQGTQGTVSS | high polyreactivity
25 | QVQLVESGGGLVQAGGSLRLSCAASGQKFEYNAMVWYRQAPRKERELVAVITYTYYADSVKGRFTISRDNAKNTVYLLMNCLKPEATAVYYCAVLYSEEILRNDNGVRFDYWGQGTQVTVSS | low polyreactivity
26 | QVQLVESGGGLVQAGGSLRLSCAASGQTIAAYVMGWYRQAPGKERELVARISRSGGSTYYADSVKGRFTISRDNAKNTVYLQMNSLKPEDTAVYYCAAARPYKTSLPGAPYDYWGQGTQVTVSS | low polyreactivity
27 | QVQLVESGGGLVQAGGSLRLSCAASGRIFAAYAMGWYRQAPGKEREFVAAIRLSGGSTYYADSVKGRFTISRDNAKNTVYLQMNSLKPEDTAVYYCAARYPGVARFYYWGQGTQLTVSS | high polyreactivity
28 | QVQLVESGGGLVQAGGSLRLSCAASGRIFAAYAMGWYRQAPGKERELVAGISRGGRTYYADSVKGRFTISRDNAKNTVYLQMNSLKPEDTAVYYCNKAPSWWDVRVPFDYWGQGTQVTVSS | low polyreactivity
29 | QVQLVESGGGLVQAGGSLRLSCAASGRIFAAYAMGWYRQAPGKERELVDAISSTGGTTYYADSVKGRFTISRDNAKNTVYLQMNSLKPEDTAVYYCATTVIVTKGSWHYSYDYWGQGTQVTVSS | low polyreactivity
30 | QVQLVESGGGLVQAGGSLRLSCAASGRIFAENAMGWYRQAPGKERELVAAITDGGGSTYYADSVKGRFTISRDNAKNTVYLQMNSLKPEDTAVYYCNAYRYHLGVDFDYWGQGTQVTVSS | low polyreactivity
31 | QVQLVESGGGLVQAGGSLRLSCAASGRIFAFNAMGWYRQAPGKERELVAAITGRGGRTYYADSVKGRFTISRDNAKNTVYLQMNSLKPEDTAVYYCAAQRYINYDYWGQGTQVTVSS | high polyreactivity
32 | QVQLVESGGGLVQAGGSLRLSCAASGRIFAFYAMGWYRQAPGKERQLVAVISKSGGTTYYADSVKGRFTISRDNAKNTVYLQMNSLKPEDTAVYYCNKRVFYRHGYSYNYWGQGTQVTVSS | high polyreactivity
33 | QVQLVESGGGLVQAGGSLRLSCAASGRIFAFYAMGWYRQAPGKVREFVAAITKSGGSTYYADSVKGRFTISRDNAKNTVYLQMNSLKPEDTAVYYCAADYWYPTTYYLYDYWGQGTQVTVSS | low polyreactivity
34 | QVQLVESGGGLVQAGGSLRLSCAASGRIFAFYARGSSRQAPGKERQLVAVISKSGGTTYYADSVKGRFTISRDNAKNTVYLQMNSLKPEDTAVYYCNKRVFYRHGYSYNYWGQGTQVTVSS | high polyreactivity
35 | QVQLVESGGGLVQAGGSLRLSCAASGRIFAGYALGWYRPAPGKERELVATSTRGGSTNYADSVKRPFTISRDNAKNTVYLQMNSLKPEDTAVYYCAAPYSSYKVRPYDYWGQGTQVTVSS | low polyreactivity
36 | QVQLVESGGGLVQAGGSLRLSCAASGRIFAHYAMGWYRQAPGKERELVADITDGGSTYYADSVKGRFTISRDNAKNTVYLQMNSLKPEDTAVYYCATRRGPWPSEYDSWGQGTQVTVSS | low polyreactivity
37 | QVQLVESGGGLVQAGGSLRLSCAASGRIFAKNVMGWYRQGPGKEWELVAAISRSGGSTYYADSVKGRFSISRDNAKNTVYLQMNSLKPEDTAVSYCGAYYGPDSARYYGGYEYWGQGTQVTVSS | high polyreactivity
38 | QVQLVESGGGLVQAGGSLRLSCAASGRIFALNAMVWYRQAPGKERELVAAITWGGGSTYYADSVKGRFTISRDNAKNTVYLQMNSLKPEDTAVYYCAADVPSRVYTVISVEVEYWGQGTQVTVSS | low polyreactivity
39 | QVQLVESGGGLVQAGGSLRLSCAASGRIFANYARGWYRQAPGKERELVAAITASGGSTYYADSVKGRFTISRVNAKNTVYLQMNSLKPEDTAGYYCAKGYRLYTMYSWGQGTQVTVSS | high polyreactivity
40 | QVQLVESGGGLVQAGGSLRLSCAASGRIFAPYAMGWYRQAPGKEREFVATITHSGGRTYYADSVKGRFTISRDNAKNNVYLQMNSLKPEHTAVYYCAAGYGYNRLYYGVDYWGQGTQVTVSS | low polyreactivity
41 | QVQLVESGGGLVQAGGSLRLSCAASGRIFAPYAMGWYRQAPGKERELVAAITRGGITNYADSVKGRFTISRDNAKNTVYLQMNSLKPEDSAVYYCETVVNRRGFYQYFYWGQGTQVTVSS | high polyreactivity
42 | QVQLVESGGGLVQAGGSLRLSCAASGRIFAPYAMGWYRQAPGKEWQLVAAIRTSGGRTYYADSVKGRFTISRDNAKNTVYLQMNSLKPEDSAVYYCAPLAWSTGRTTTVYDYWGLGTQVTVSS | high polyreactivity
43 | QVQLVESGGGLVQAGGSLRLSCAASGRIFARNVMGWYRQAPGKERELVAGISRSGGTTYYADSVKGRFTISRDNAKNTVYLQMNSLKPEDTAVYYCAAYYFLENDYWGPGTQVTVSS | high polyreactivity
